Data on two molecules can be found in patent US20180094062A1 (Hoffmann-La Roche, published 2018).

Assay [1] deals with T1, HER3 ECD-HRG complex (Heregulin-activated Her-3 ECD) (human, UniProt P21860 20-643).
T1 construct: receptor-ligand complex made by preincubating HER3 ECD with a five-fold molar excess of Heregulin; also called Heregulin/Her-3 ECD; Heregulin-complexed Her-3 ECD
Put plainly: SPR Biacore 3000, antibody captured, Biacore two-state model, kd1, 25 C; kd1, first step of the two-state fit; not the kd2 used for KDapp. The method, then: (§1) A CM5 series sensor was mounted into the system and was normalized in HBS-ET buffer (10 mM HEPES pH 7.4, 150 mM NaCl, 3 mM EDTA, 0.005% w/v Tween 20) according to the manufacturer's instructions. The sample buffer was the system buffer supplemented with 1 mg/ml CMD (Carboxymethyldextran). The system operated at 25° C. 10000 RU RAM-Fey (relative units of Fey-fragment Rabbit Anti-Mouse IgG/Jackson Laboratories) were immobilized according to the manufacturer's instructions using EDC/NHS chemistry on all flow cells. The sensor was deactivated using 1M ethanolamine.
In general terms: Surface plasmon resonance follows binding to a sensor surface in real time, without labels.

The target of assay [2] is T1, HER3 ECD-HRG complex …. Put plainly: SPR Biacore 3000, antibody captured, Biacore two-state model, apparent KD from ka1 and kd2, 25 C; apparent KD of the two-state model, kd2 / ka1. The method, then: as §1
For assay [3], the target named is T2, human recombinant HER3 Extracellular Domain (HER3 ECD) (human, UniProt P21860 20-643).
T2 construct: 68 kDa; also called human-Her3-ECD
Put plainly: SPR Biacore T100, antibody captured, 25 C.

Assay [4] addresses T1, HER3 ECD-HRG complex …. Put plainly: SPR Biacore 3000, antibody captured, 25 C. The method, then: as §1
For assay [5], the target named is T3, recombinant Thermus thermophilus SlyD FKBP-Her3 (TtSlyD-FKBP-Her3).
T3 construct: expressed in E. coli, the N-terminal methionine can be present or not; also called thermo SlyD-Her3; T.T.SlyD-Her3
T3 chain: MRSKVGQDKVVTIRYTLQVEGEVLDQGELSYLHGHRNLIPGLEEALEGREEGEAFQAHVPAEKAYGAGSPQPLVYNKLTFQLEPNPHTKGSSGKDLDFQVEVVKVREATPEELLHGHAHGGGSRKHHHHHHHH
Put plainly: SPR Biacore T100, antibody captured, 25 C, Langmuir fit. The method, then: (§2) A CM5 series sensor was mounted into the system and was normalized in HBS-ET buffer (10 mM HEPES pH 7.4, 150 mM NaCl, 3 mM EDTA, 0.005% w/v Tween 20) according to the manufacturer's instructions. The sample buffer was the system buffer supplemented with 1 mg/ml CMD (Carboxymethyldextran, Sigma #86524). The system operated at 25° C. 6500 RU RAM-Fcγ (relative units of Fcγ-fragment RamlgG, GE Healthcare) were immobilized according to the manufacturer's instructions using EDC/NHS chemistry on all four flow cells. The sensor was deactivated using 1M ethanolamine.
(§3) Analytes in solution were injected at different concentration steps of 0 nM, 1.1 nM, 3.7 nM, 11.1 nM, 33.1 nM and 90 nM for 3.5 min. The dissociation was monitored for 15 min. Where possible, kinetic signatures were evaluated according to a Langmuir fit.

Assay [6] deals with T2, human recombinant HER3 Extracellular …. The description is as above. On the procedure:
as §2, §3

In assay [7] the target is T4, human HER3, full length, on cells (T47D, MCF7, transfected HEK293) (human, UniProt P21860 20-1342).
T4 construct: endogenous on T47D and MCF7 tumor cells, transient full length in HEK293 (formalin fixed for IHC); also called expressed HER3 ECD
Put plainly: FACS on T47D cells, 0 minutes incubation.

Another assay deals with T5, TtSlyDcys-Her3.
T5 chain: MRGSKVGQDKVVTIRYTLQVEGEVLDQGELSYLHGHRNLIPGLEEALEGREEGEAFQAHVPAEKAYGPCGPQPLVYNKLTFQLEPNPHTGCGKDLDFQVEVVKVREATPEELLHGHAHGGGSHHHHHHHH
Put plainly: SPR Biacore T200, antibody captured, 25 C. The method, then:
A Biacore T200 instrument (GE Healthcare) was mounted with a CM5 series sensor. The sensor was normalized in HBS-ET buffer (10 mM HEPES pH 7.4, 150 mM NaCl, 3 mM EDTA, 0.05% w/v Tween 20) according to the manufacturer's instructions. The sample buffer was the system buffer supplemented with 1 mg/ml CMD (Carboxymethyldextran, Sigma #86524). The system operated at 25° C. 6500 RU RAM-Fcγ (relative units of Fcγ-fragment RamlgG, GE Healthcare) were immobilized according to the manufacturer's instructions using amine coupling EDC/NHS chemistry on all four flow cells. The sensor was deactivated using 1M ethanolamine. […] Concentration dependent kinetics were measured. […] All analytes were injected for 5 min association time and 10 min dissociation time at 100 μl/min flow rate. The sensor capture system was regenerated by a 3 min injection at 10 μl/min of 10 mM glycine pH 1.7. Where possible kinetic data was evaluated using the Biacore T200 evaluation software.

Where “and” joins values, the source holds several entries; their conditions need not be identical. Equal entries are not always repeated.

B1: anti-HER3 antibody M-08-11 (antibody, V domains shown)
VH: QAYLQQSGAELMRPGASVRMSCQASGYTFTSYTIHWLKQTPRQGLEWIGAIYPRNGDFSYNQKFKDKASLTVDTSSSTAYMHLSSLTSEDSAVYFCARTINYGDWFAYWGQGTLVTVSA
VL: DIQMIQSPASLFVSEGETVIITCRASENIYSNLAWYHQKKGKSPQVLVYAAIKLADGVPLRFSGSGSGTQFSLKINSLQSEDFGSYYCQHFWGPPYTFGSGTNLEIK
notes: mouse monoclonal antibody from hybridoma, tested as hybridoma supernatant or as antibody; also called M-011
A word on the koff: it is the first-order rate constant of dissociation. Broadly, the kon is the second-order rate constant of association. For the molecule B1, the koff is 0.0502 s⁻¹ in assay [1], 0.00014 s⁻¹ in assay [5] and 5.32e-05 s⁻¹ in assay [6]. In addition, the Kd is 18 nM in assay [2]; 1.6 nM and 2 nM in assay [5]; 1.08 nM and 1 nM in assay [6]. Further, the “MR (Molar Ratio)” value in assay [3] was 0.5; in assay [4], 1.1. The kon was 87000 M⁻¹ s⁻¹ in assay [5] and 49300 M⁻¹ s⁻¹ in assay [6]. Also, the “fold binding level with HRG against without HRG” value in assay [7] was no less than 2 fold.

B2: anti-HER3 antibody M-43-01 (antibody, V domains shown)
VH: EVQLQQSGTVLARPGASVKMSCKASDYTFSNYWVHWVKQRPGQGLEWIGAIYPGNGDSTYYQKFKGKATLTAVTSTSTAYMDLSSLTNGDSAVYFCTRSGVGYNYYFDYWGQGTTLTVSS
VL: DIQMTQSPASLSASVGETVTITCRASENIYSNLAWYQQKQGKSPQLLVYIATNLADGVPSRFSGSGSGTQFSLKINSLQPEDLGSYYCQHFYGTPFTFGTGTKLEIE
notes: mouse hybridoma clone
With B2, in the assay with TtSlyDcys-Her3, the Kd came to 2.9 nM, the “MR (Molar Ratio)” value stood at 1.7, the koff was determined as 0.00016 s⁻¹ and the kon was found to be 54000 M⁻¹ s⁻¹.
